According to doi:10.1101/2024.07.27.605439:

What was measured:
[1] = target: Gαs-D229S single mutant (human) (UniProt P63092)
[2] = target: Gαs-F208V/D229S/Q236H triple mutant (human) (UniProt P63092)
[3] = target: Gαi1-V185F single mutant (human) (UniProt P63096)
[4] = target: Gαi1-H213Q single mutant (human) (UniProt P63096)
[5] = target: Gαi1-V185F/H213Q double mutant (human) (UniProt P63096)

- EC50 of RGS16 GAP activity (dose response) towards Gαs-D229S [1]: 800 nM
- EC50 of RGS16 GAP activity (dose response) towards Gαs-F208V/D229S/Q236H [2]: 9 nM
- EC50 of RGS16 GAP activity (dose response) towards Gαi1-V185F [3]: 4 nM
- EC50 of RGS16 GAP activity (dose response) towards Gαi1-H213Q [4]: 7 nM
- EC50 of RGS16 GAP activity (dose response) towards Gαi1-V185F/H213Q [5]: 45 nM
Substance: RGS domain of human RGS16 (residue 86–205) (domain or fragment)
